In US20250223361A1 (MABTREE BIOLOGICS, published 2025):
Numbering of substitutions follows the chain as printed.

Experiments:
human PD-L1.his Protein [1] = target: T1, human PD-L1.his Protein (human, UniProt Q9NZQ7 19-238, limits assumed); test: ELISA, coated human PD-L1.his, absorbance at 450 nm; lower table
T1 construct: Produced in-house (Genscript); also called HuPD-L1-his; not shown: his tag

human PD-L1.his Protein [2] = target: T1, human PD-L1.his Protein; test: ELISA, coated human PD-L1.his, absorbance at 450 nm; upper table
human PD-L1 on CHO cells [3] = target: T2, human PD-L1 on CHO cells (human, UniProt Q9NZQ7 19-290); test: cell-based or functional assay
human PD-L1 on CHO cells [4] = target: T2, human PD-L1 on CHO cells; test: cell-based or functional assay; remark: listed apart in the source
human PD-L1.his Protein [5] = target: T1, human PD-L1.his Protein; test: GATOR instrument kinetics, HuPD-L1-his
human PD-L1.his Protein [6] = target: T1, human PD-L1.his Protein; test: SPR Biacore T200, antibody Fc-captured, antigen as analyte
Method: The affinity of purified antibody binding to antigen was individually determined using a Surface Plasmon Resonance (SPR) biosensor, BiacoreT200 (GE Healthcare). Antibodies were immobilized on the sensor chip through Fc capture method. Antigen was used as the analyte. The data of dissociation (kd) and association (ka) rate constants were obtained using Biacore T200 evaluation software. The equilibrium dissociation constants (KD) were calculated from the ratio of kd over ka.

human PD-L1.his Protein [7] = target: T1, human PD-L1.his Protein; test: ELISA, coated human PD-L1.his, absorbance at 450 nm
Method: To evaluate the fully human IgGs binding activity to human PD-L1 protein, ELISA EC50 determination was performed. Briefly, human PD-L1.his protein was coated with 0.5 μg/ml in CBS, 100 μl/well at 4° C., incubated for overnight. Washed three times and blocking with 3% BSA-PBS at 37° C. for 1 hour. Then diluted fully human IgGs in 1% BSA-PBS were added to the blocked wells. […] Incubation at room temperature for 2 hours. […] The plates were washed for additional 6 times and the substrate solution were added to the wells for developing reaction. The absorption was measured at 450nm using a spectrometer.

human PD-L1.his Protein [8] = target: T1, human PD-L1.his Protein; test: GATOR instrument kinetics, HuPD-L1-his; reference parental antibody AHP01679

T2 sequence (Q9NZQ7 19-290): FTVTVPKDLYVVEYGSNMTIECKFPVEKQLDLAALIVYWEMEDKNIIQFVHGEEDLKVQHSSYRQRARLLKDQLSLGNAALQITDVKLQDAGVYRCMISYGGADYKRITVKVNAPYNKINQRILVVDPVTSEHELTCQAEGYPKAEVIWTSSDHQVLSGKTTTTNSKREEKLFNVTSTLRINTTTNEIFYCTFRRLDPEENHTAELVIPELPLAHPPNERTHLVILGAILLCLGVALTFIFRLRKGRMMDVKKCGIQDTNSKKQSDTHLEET
T1 sequence (Q9NZQ7 19-238 limits assumed): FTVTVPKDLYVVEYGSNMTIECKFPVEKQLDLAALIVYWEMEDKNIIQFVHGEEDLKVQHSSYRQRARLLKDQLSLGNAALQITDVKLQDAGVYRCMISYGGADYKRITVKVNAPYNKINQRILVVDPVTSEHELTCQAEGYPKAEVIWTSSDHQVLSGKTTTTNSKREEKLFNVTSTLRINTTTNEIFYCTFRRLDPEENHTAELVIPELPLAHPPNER

## negative control human IgG (antibody)
Human PD-L1.his Protein [1]
  absorbance at 0.00564503 ng/ml: 0.058
  absorbance at 0.01693509 ng/ml: 0.067
  absorbance at 0.05080526 ng/ml: 0.061
  absorbance at 0.15241579 ng/ml: 0.064
  absorbance at 0.45724737 ng/ml: 0.057
  absorbance at 1.37174211 ng/ml: 0.065
  absorbance at 12.345679 ng/ml: 0.064
  absorbance at 37.037037 ng/ml: 0.059
  absorbance at 111.111111 ng/ml: 0.067
  absorbance at 333.333333 ng/ml: 0.059
  absorbance at 1000 ng/ml: 0.081
Human PD-L1.his Protein [2]
  absorbance at 1.3717 ng/ml: 0.078
  absorbance at 4.1152 ng/ml: 0.052
  absorbance at 37.0370 ng/ml: 0.052
  absorbance at 111.1111 ng/ml: 0.054
  absorbance at 333.3333 ng/ml: 0.058
  absorbance at 1000 ng/ml: 0.069
  absorbance at 3000 ng/ml: 0.121

B1: AHP01679 (antibody, human IgG1, lambda, V domains shown)
VH: EVQLVQSGAEVKKPGSSVKVSCKASGGTFSSYAISWVRQAPGQGLEWMGRIIPILGIANYAQKFQGRVTITADKSTSTAYMELSSLRSEDTAVYYCTTFIQQWLYAFDIWGQGTMVTVSS
VL: QAVLTQPSSVSGAPGQRVTISCTGSSSNIGAGYDVHWYQQLPGTAPKLLIYGNNNRPSGVPDRFSGSKSGTSASLAITGLQAEDEADYYCQSYDSSLSGSVFGGGTKLTVLG
notes: Fully human full-length IgG (IgG1 constant region, lambda light chain); also called Parental Ab; parental antibody
Human PD-L1 on CHO cells [3]
  EC50 (assay not named; EC50 is defined in paragraph 62 as the concentration of antibody required to block binding of PD-1/PD-L1 by 50%): 0.163 µg/mL
Human PD-L1 on CHO cells [4]
  EC50 (read off the curve), PD-1/PD-L1 blockade luciferase reporter assay [panel E]: ~0.2 µg/mL
  EC50, PD-1/PD-L1 blockade luciferase reporter assay [panel E]: 0.153 µg/mL
Human PD-L1.his Protein [5]
  Kd: 0.351 nM
  koff: 0.00132 s⁻¹
  kon: 3.77e+06 M⁻¹ s⁻¹
Human PD-L1.his Protein [6]
  Kd: 4.09 nM
  koff: 0.00259 s⁻¹
  kon: 635000 M⁻¹ s⁻¹
Human PD-L1.his Protein [7]
  EC50: 3.34 ng/mL
Human PD-L1.his Protein [8]
  KD (Parental Ab)/KD (Candidate Ab): 1 fold

B2: QJ001-45 (antibody, human IgG1, lambda, V domains shown)
VH: B1 VH with I100F
VL: B1 VL with T23F, Q91G
notes: also called P02897
Human PD-L1 on CHO cells [3]
  EC50 (assay not named; EC50 is defined in paragraph 62 as the concentration of antibody required to block binding of PD-1/PD-L1 by 50%): 0.0966 µg/mL
Human PD-L1.his Protein [5]
  Kd: 0.0338 nM
  koff: 0.000145 s⁻¹
  kon: 4.29e+06 M⁻¹ s⁻¹
Human PD-L1.his Protein [8]
  KD (Parental Ab)/KD (Candidate Ab): 10.4 fold
